Measured values published in the RNAGym collection of RNA variant scans (doi:10.7554/elife.90254).

B1: LINE1-full (parent)
chain: UACGUAGGUGGUUUUCCCCUGAUAGUGCUAAGGGGGCCUGGAAGUUUGGACUGGGCAGAGCUCAACACAGCGUGGCAAAGUGGCUGUGGCUAGACUGCCUCUCUGGAUUCCUCGUCACUCAGCAGGGCAUCUCUGAGAGAAAUGCC

Variants of: B1
Assay: self-cleavage, relative activity (ratio to wild type); higher = more cleavage; in vitro, sequencing; the parent is a self-cleaving ribozyme

Variant | self-cleavage
A77G G97U | 0.08
A77G G125A | 2.43
A77G G125U | 2.41
A77G G127U | 2.58
A77G G139U | 2.41
A77G U96A | 0.13
A77G U100A | 1.93
A77G U102A | 2.63
A77G U104A | 1.64
A77G U108C | 2.51
A77G U109G | 0
A77G U115A | 2.25
A77G U115C | 2.05
A77G U119C | 2.81
A77G U130C | 2.56
A77G U132A | 2.34
A77U | 1.21
A77U A78G | 0.68
A77U A79G | 1.48
A77U A92G | 0.05
A77U A92U | 0.63
A77U A94G | 0.24
A77U A107U | 0.62
A77U A121G | 1.6

Variant | self-cleavage
A77U A124C | 1.49
A77U A124U | 1.27
A77U A129U | 1.24
A77U A136U | 0.75
A77U A138G | 1.75
A77U A138U | 1.27
A77U A140G | 1.37
A77U A140U | 1.23
A77U C110U | 0.94
A77U C123U | 0.84
A77U C131U | 1.19
A77U C145A | 1.75
A77U G89A | 0.06
A77U G93C | 0.03
A77U G93U | 0.04
A77U G106A | 1.31
A77U G122A | 0.36
A77U G125A | 1.33
A77U G125U | 1.5
A77U G127A | 1.48
A77U U81A | 1.89
A77U U85C | 0.09
A77U U87A | 0.05
A77U U87C | 0.09

Variant | self-cleavage
A77U U91C | 0.6
A77U U96C | 0.1
A77U U96G | 0.27
A77U U102C | 1.24
A77U U104C | 1.74
A77U U108G | 1.37
A77U U109C | 0.98
A77U U112A | 1.1
A77U U115C | 1.22
A77U U119A | 1.51
A77U U130G | 1.86
A77U U132C | 1.41
A77U U132G | 1.74
A77U U134A | 0.57
A77U U143C | 1.04
A77U U143G | 1.48
A78C A117G | 2.21
A78C A121G | 2.59
A78C A138G | 1.84
A78C G122A | 1.41
A78C U96C | 0.29
A78C U102C | 2.53
A78C U108C | 2.16
A78C U109C | 2.32

Variant | self-cleavage
A78C U112C | 1.94
A78G A79U | 0.52
A78G A94G | 0.49
A78G A94U | 0.19
A78G A117G | 0.89
A78G A121C | 1.9
A78G A121G | 1.24
A78G A121U | 0.67
A78G A124C | 1.59
A78G A124G | 0.99
A78G A129U | 1.17
A78G A138C | 1.31
A78G A138G | 1.69
A78G A140G | 1.18
A78G A140U | 1.38
A78G C84A | 0.09
A78G C90U | 0.03
A78G C98G | 0.11
A78G C98U | 0.47
A78G C116U | 1.29
A78G C146U | 1.06
A78G G80A | 2.49
A78G G83A | 0.25
A78G G89C | 0.07

Variant | self-cleavage
A78G G93A | 0.04
A78G G106A | 1.45
A78G G114A | 0.83
A78G G114C | 1.09
A78G G126C | 1.99
A78G G127A | 1.16
A78G G135A | 1.17
A78G G144A | 1.3
A78G U81C | 1.62
A78G U81G | 0.34
A78G U85A | 0.09
A78G U87A | 0.1
A78G U87C | 0.15
A78G U91C | 0.29
A78G U96A | 0.06
A78G U100A | 0.16
A78G U100C | 2.09
A78G U102C | 1.53
A78G U102G | 0.2
A78G U104C | 1.82
A78G U108A | 1.41
A78G U108C | 1.64
A78G U108G | 1.38
A78G U109C | 1.38

Variant | self-cleavage
A78G U115C | 1.51
A78G U119G | 1.04
A78G U130A | 1.1
A78G U130C | 1.29
A78G U130G | 1.88
A78G U132A | 1.62
A78G U132C | 1.39
A78G U134A | 0.9
A78G U134G | 1.07
A78U A79G | 0.74
A78U A92U | 1.02
A78U A107G | 2.47
A78U A117C | 2.72
A78U A117G | 2.93
A78U A124U | 2.15
A78U A136C | 2.73
A78U A140U | 1.72
A78U A141G | 1.96
A78U A142G | 1.87
A78U A142U | 2.12
A78U C84A | 0.18
A78U C116G | 2.13
A78U G122A | 1.36
A78U G127C | 2.34

Variant | self-cleavage
A78U G135A | 1.8
A78U U87C | 0.84
A78U U91G | 0.11
A78U U96A | 0.07
A78U U100A | 1.13
A78U U102C | 1.12
A78U U104A | 1.8
A78U U104C | 0.87
A78U U112A | 2.12
A78U U115C | 1.72
A78U U119C | 2.05
A78U U130C | 2.68
A78U U143C | 1.31
A79C | 1.57
A79C A92G | 0.24
A79C A121G | 1.67
A79C A129G | 1.93
A79C A136G | 1.93
A79C A138U | 2.19
A79C A141G | 1.96
A79C G89A | 0.09
A79C U85C | 0.58
A79C U91A | 0.94
A79C U119A | 1.01

Variant | self-cleavage
A79C U134A | 1.24
A79G | 1.25
A79G A92G | 0.18
A79G A92U | 0.66
A79G A94G | 0.35
A79G A107C | 0.92
A79G A107G | 1.21
A79G A117G | 1.27
A79G A121U | 1.13
A79G A124G | 0.62
A79G A129U | 1.16
A79G A136G | 1.42
A79G A138C | 2.4
A79G A140G | 1.12
A79G A142U | 2.04
A79G C84G | 0.07
A79G C98G | 0.12
A79G C101A | 0.68
A79G C110A | 1.29
A79G C110U | 2.15
A79G C113A | 0.14
A79G C116U | 1.63
A79G C118U | 2.23
A79G C120A | 1.39

Variant | self-cleavage
A79G C128A | 0.46
A79G C145U | 1.09
A79G G80A | 1.89
A79G G82U | 1.32
A79G G83U | 0.2
A79G G86U | 0.1
A79G G88U | 0.05
A79G G89U | 0.05
A79G G105A | 1.29
A79G G105U | 1.19
A79G G114A | 1.23
A79G G122A | 1.31
A79G G125C | 1.28
A79G G126A | 1.51
A79G G135A | 1.38
A79G G137A | 1.03
A79G G144C | 0.77
A79G U81A | 2.28
A79G U81C | 0.27
A79G U87G | 0.07
A79G U91A | 0.32
A79G U96A | 0.09
A79G U96C | 0.16
A79G U100A | 0.71

Variant | self-cleavage
A79G U102A | 1.12
A79G U102C | 0.89
A79G U104A | 1.35
A79G U104C | 1.22
A79G U104G | 1.7
A79G U108A | 1.17
A79G U108C | 1.61
A79G U109A | 1.19
A79G U109C | 1.26
A79G U112A | 1.54
A79G U115A | 1.4
A79G U119C | 1.48
A79G U119G | 1.31
A79G U130A | 1.09
A79G U132G | 0.63
A79G U134C | 1.25
A79G U134G | 0.57
A79G U143C | 1.47
A79U | 1.85
A79U A107U | 1.74
A79U A117G | 2.57
A79U A121C | 1.64
A79U A141U | 2.36
A79U C84A | 0.21

Variant | self-cleavage
A79U C99A | 0.31
A79U C101A | 1.92
A79U C116A | 1.49
A79U G86A | 0.07
A79U G114A | 1.79
A79U G125A | 1.6
A79U U91C | 1.04
A79U U102A | 2.23
A79U U108C | 2.3
A79U U109C | 1.34
A79U U109G | 1.1
A79U U112C | 1.95
A79U U115C | 1.12
A79U U143A | 1.29
A79U U143C | 2.02
G80A A94G | 0.23
G80A A107U | 2.11
G80A A121C | 2.91
G80A A124U | 2.27
G80A A136U | 2.49
G80A A138G | 2.06
G80A A141G | 1.89
G80A C128U | 1.9
G80A G86A | 0.05

Variant | self-cleavage
G80A G88U | 0.15
G80A G89A | 0.07
G80A G126U | 2.06
G80A G127C | 1.6
G80A U87C | 0.2
G80A U100C | 1.42
G80A U102C | 1.92
G80A U112C | 1.43
G80C A121G | 1.18
G80C A141G | 1.04
G80C C98U | 0.26
G80C G86U | 0.04
G80C U109C | 1.27
G80U A107G | 0.94
G80U A121G | 1.5
G80U A124G | 1.69
G80U A138G | 1.45
G80U U132A | 2.3
G80U U134A | 1.45
U81A A92G | 0.15
U81A A94G | 0.37
U81A A94U | 0.6
U81A A107G | 1.84
U81A A121G | 2.65

Variant | self-cleavage
U81A A121U | 1.7
U81A A124U | 1.78
U81A A140G | 1.95
U81A C118U | 1.78
U81A C123U | 1.01
U81A C146A | 2.08
U81A G114C | 2.67
U81A U85C | 0.16
U81A U87A | 0.11
U81A U87C | 0.19
U81A U91A | 0.93
U81A U100C | 2.98
U81A U102C | 2.18
U81A U104A | 1.81
U81A U104C | 2.77
U81A U108A | 2.18
U81A U108C | 2.2
U81A U109A | 2.28
U81A U112C | 2.32
U81A U130A | 1.3
U81A U134C | 2.26
U81C A117C | 1.59
U81C A117U | 1.56
U81C A121C | 1.37

Variant | self-cleavage
U81C A124G | 1.25
U81C A124U | 0.74
U81C A129G | 1.56
U81C A138C | 2.23
U81C A138U | 1.22
U81C A140U | 1.9
U81C A141G | 1.07
U81C C95U | 0.26
U81C C101U | 2.14
U81C C111U | 1.75
U81C C146A | 1.8
U81C G88A | 0.12
U81C G88U | 0.05
U81C G89A | 0.06
U81C G114A | 1.17
U81C G125U | 1.5
U81C G126U | 1.4
U81C G127A | 2.07
U81C G139A | 1.63
U81C G144A | 0.42
U81C U85C | 0.12
U81C U87A | 0.1
